Measured values as given in US20190134153A1, “IMMUNOMODULATORY EFFECT OF INHALED KINASE INHIBITOR PEPTIDES IN LUNG” (MOERAE MATRIX, INC., priority 2017, published 2019).

Tests used:
Assay in all cases: Kinase Profiling Assay
Type in all cases: biochemical
Settings in all cases: 100 μM
SGK3(h) = biological target: T1, SGK3(h) (Homo sapiens, UniProt Q96BR1)
T1 sequence (Q96BR1 1-496): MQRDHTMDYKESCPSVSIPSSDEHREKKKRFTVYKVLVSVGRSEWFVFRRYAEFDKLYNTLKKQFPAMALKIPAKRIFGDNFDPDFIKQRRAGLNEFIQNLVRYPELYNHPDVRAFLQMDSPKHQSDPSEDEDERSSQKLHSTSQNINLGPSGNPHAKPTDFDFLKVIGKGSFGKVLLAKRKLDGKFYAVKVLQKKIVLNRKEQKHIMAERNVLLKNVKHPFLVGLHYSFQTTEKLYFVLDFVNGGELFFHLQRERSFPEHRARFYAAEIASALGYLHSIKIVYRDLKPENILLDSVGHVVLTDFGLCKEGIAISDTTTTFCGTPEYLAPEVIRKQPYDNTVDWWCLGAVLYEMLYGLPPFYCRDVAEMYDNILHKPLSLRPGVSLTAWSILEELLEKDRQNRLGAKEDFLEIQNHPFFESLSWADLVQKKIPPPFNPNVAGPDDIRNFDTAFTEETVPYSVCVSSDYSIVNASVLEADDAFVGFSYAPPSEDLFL

MST3(h) = MST3(h) (Homo sapiens, UniProt Q9Y6E0)
Chain of MST3(h) (Q9Y6E0 whole entry): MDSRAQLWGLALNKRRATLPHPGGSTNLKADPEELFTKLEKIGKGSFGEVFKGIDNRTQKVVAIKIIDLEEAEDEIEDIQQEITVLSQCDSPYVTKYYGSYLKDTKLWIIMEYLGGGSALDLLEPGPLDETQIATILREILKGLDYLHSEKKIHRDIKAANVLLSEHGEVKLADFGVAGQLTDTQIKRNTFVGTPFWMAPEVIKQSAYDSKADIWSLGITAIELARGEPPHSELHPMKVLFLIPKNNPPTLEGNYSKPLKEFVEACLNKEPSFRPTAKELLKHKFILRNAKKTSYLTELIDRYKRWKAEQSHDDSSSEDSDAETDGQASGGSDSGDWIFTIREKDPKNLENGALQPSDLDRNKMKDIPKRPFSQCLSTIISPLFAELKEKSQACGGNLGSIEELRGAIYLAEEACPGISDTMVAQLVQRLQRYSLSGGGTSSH

Met(h) = Met(h) (Homo sapiens, UniProt P08581)
Plk3(h) = Plk3(h) (Homo sapiens, UniProt Q9H4B4)
Chain of Plk3(h) (Q9H4B4 whole entry): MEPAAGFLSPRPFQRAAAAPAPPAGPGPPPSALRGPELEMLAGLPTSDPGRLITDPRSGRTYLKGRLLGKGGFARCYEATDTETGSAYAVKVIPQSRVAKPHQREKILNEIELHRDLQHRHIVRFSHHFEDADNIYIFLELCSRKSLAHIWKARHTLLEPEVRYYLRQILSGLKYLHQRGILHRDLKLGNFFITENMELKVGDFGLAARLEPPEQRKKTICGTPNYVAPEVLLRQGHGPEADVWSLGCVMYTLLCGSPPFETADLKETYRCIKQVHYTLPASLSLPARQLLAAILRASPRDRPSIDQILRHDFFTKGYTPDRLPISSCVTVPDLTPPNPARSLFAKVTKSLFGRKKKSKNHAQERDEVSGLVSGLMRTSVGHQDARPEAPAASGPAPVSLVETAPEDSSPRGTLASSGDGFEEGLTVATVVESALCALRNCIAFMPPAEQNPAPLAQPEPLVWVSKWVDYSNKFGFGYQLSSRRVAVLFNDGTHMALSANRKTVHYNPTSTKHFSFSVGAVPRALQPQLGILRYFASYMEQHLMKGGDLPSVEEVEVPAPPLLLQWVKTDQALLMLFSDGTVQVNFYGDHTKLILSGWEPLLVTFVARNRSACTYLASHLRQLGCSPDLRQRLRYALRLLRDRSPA

MSK2(h) = MSK2(h) (Homo sapiens, UniProt O75676)
Chain of MSK2(h) (O75676 whole entry): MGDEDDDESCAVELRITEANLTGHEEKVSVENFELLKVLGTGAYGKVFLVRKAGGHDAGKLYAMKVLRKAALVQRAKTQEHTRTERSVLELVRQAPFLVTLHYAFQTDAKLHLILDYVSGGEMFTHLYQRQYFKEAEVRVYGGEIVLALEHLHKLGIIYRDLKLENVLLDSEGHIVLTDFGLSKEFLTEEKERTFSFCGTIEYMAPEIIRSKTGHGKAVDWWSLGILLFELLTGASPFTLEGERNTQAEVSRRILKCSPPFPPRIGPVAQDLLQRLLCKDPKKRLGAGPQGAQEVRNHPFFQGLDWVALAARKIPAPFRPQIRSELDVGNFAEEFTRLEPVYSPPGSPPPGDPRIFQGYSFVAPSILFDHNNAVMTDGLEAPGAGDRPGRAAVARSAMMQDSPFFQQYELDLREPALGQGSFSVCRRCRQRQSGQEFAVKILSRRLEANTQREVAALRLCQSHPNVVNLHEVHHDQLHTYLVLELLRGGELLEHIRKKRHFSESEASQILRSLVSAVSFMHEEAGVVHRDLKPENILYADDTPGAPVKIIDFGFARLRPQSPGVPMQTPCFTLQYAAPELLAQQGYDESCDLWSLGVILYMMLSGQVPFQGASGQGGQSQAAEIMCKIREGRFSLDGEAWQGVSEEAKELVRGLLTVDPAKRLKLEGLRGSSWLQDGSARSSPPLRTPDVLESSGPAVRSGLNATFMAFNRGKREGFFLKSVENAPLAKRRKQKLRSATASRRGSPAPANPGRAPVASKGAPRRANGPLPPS

Met(D1246N)(h) = Met(D1246N)(h) (Homo sapiens, UniProt P08581, D1228N)
MST2(h) = biological target: T2, MST2(h) (Homo sapiens, UniProt Q13188)
T2 sequence (Q13188 1-491): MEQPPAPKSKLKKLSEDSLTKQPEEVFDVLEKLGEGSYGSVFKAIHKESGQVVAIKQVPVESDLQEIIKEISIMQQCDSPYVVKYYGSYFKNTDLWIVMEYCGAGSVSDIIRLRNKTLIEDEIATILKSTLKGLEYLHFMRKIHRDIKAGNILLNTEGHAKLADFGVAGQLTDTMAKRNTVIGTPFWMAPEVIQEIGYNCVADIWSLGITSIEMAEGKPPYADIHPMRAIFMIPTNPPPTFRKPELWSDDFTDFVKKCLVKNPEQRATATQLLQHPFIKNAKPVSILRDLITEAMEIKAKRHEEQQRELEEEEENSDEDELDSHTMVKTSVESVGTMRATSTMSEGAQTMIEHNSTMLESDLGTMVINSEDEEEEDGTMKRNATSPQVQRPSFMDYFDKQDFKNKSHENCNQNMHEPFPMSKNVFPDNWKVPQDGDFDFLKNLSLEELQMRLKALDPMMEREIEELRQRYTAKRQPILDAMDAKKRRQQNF

TAO3(h) = biological target: T3, TAO3(h) (Homo sapiens, UniProt Q9H2K8)
T3 sequence (Q9H2K8 1-898): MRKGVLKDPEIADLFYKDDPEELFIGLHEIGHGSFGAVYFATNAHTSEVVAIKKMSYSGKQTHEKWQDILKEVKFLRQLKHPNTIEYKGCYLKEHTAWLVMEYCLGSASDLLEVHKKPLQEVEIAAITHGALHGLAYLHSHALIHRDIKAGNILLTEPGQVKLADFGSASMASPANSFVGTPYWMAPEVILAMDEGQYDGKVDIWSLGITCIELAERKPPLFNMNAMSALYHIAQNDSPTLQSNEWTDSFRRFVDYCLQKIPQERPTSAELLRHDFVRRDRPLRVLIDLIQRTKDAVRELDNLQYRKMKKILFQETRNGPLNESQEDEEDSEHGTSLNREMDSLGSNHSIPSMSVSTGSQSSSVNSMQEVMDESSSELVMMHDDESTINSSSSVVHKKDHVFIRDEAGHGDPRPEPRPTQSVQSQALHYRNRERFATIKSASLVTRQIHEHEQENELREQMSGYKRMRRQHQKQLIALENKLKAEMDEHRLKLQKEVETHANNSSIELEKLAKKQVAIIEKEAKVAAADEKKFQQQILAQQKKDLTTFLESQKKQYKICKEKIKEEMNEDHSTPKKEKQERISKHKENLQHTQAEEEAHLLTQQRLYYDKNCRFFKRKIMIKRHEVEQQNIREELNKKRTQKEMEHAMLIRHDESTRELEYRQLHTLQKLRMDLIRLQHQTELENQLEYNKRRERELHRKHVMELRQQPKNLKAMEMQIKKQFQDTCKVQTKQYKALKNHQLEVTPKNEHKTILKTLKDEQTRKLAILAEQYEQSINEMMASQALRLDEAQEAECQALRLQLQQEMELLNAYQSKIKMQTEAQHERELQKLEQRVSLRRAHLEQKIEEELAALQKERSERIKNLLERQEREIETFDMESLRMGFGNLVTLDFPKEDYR

ALK4(h) = biological target: T4, ALK4(h) (Homo sapiens, UniProt P36896)
T4 sequence (P36896 24-505): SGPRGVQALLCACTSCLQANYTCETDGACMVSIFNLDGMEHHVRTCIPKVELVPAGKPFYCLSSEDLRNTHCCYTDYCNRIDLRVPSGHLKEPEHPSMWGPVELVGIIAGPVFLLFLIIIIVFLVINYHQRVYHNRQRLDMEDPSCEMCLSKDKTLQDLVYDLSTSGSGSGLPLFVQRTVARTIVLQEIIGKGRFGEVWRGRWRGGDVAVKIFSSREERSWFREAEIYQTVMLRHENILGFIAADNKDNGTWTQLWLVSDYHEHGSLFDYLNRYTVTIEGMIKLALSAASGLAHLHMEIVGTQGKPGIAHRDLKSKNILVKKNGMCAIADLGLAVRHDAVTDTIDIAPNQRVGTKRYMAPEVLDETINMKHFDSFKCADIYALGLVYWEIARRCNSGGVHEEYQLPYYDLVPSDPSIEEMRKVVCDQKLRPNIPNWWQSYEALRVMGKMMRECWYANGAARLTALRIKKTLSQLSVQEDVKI

JNK2α2(h) = JNK2α2(h) (Homo sapiens, UniProt P45984)
CDK7/cyclinH/MAT1(h) = CDK7/cyclinH/MAT1(h) (Homo sapiens, UniProt P50613)
Chain of CDK7/cyclinH/MAT1(h) (P50613 whole entry): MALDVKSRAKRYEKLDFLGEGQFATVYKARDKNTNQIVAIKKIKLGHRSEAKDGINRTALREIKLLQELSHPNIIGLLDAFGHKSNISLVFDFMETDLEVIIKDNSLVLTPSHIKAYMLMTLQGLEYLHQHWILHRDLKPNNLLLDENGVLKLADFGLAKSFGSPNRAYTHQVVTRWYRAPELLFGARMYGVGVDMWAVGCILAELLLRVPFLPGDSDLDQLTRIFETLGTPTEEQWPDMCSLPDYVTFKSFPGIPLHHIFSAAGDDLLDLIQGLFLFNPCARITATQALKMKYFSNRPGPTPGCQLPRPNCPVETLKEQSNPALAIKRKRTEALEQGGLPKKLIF
Chain of CDK7/cyclinH/MAT1(h) (P51946 whole entry partner): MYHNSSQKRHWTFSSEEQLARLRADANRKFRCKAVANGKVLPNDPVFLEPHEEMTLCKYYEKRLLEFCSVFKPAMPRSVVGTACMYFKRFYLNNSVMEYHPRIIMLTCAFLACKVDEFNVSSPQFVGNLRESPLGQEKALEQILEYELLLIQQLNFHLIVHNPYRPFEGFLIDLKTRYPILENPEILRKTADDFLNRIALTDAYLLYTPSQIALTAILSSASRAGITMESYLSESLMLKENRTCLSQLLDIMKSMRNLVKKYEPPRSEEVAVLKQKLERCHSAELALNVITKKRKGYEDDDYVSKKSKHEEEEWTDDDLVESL
Chain of CDK7/cyclinH/MAT1(h) (P51948 whole entry partner): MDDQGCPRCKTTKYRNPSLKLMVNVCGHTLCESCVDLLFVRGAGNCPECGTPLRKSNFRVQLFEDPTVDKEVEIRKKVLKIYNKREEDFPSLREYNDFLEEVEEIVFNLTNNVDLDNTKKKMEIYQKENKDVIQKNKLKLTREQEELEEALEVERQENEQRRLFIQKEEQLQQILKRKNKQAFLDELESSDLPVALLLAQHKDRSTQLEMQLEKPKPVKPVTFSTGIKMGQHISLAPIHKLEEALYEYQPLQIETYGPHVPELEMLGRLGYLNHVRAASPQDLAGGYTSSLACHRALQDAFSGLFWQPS

How did the “% activity” value (SGK3(h)) turn out when HRRIKAWLKKIKALARQLGVAA [MMI-0500] was run?
The value was −3%.

And the “% activity” value (MST3(h))?
The value was 4%.

And the “% activity” value (Met(h))?
Its value is 27%.

What about the “% activity” value (Plk3(h)) of the same sequence?
Its value is 122%.

What about the “% activity” value (MSK2(h)) of the same sequence?
The value was 14%.

What about the “% activity” value (Met(D1246N)(h)) of the same sequence?
The value was 90%.

And the “% activity” value (MST2(h))?
Its value is 2%.

What about the “% activity” value (TAO3(h)) of the same sequence?
Its value is 12%.

What about the “% activity” value (ALK4(h)) of the same sequence?
Its value is 81%.

And the “% activity” value (JNK2α2(h))?
The value was 81%.

And the “% activity” value (CDK7/cyclinH/MAT1(h))?
Its value is 15%.

Which “% activity” value (SGK3(h)) does the source give for YARAAARQARAKALNRQLGVA [MMI-0200] here?
The value was 58%.

And the “% activity” value (MST3(h))?
Its value is 95%.

And the “% activity” value (Met(h))?
Its value is 71%.

And the “% activity” value (MSK2(h))?
Its value is 88%.

And the “% activity” value (Met(D1246N)(h))?
Its value is 149%.

And the “% activity” value (ALK4(h))?
The value was 152%.

And the “% activity” value (CDK7/cyclinH/MAT1(h))?
Its value is 67%.

What does the source list for KAFAKLAARLYRKALARQLGVAA [MMI-0400]?
% activity (SGK3(h)): 8%; % activity (MST3(h)): 36%; % activity (Met(h)): 62%; % activity (Plk3(h)): 129%; % activity (MSK2(h)): 52%; % activity (Met(D1246N)(h)): 31%; % activity (MST2(h)): 11%; % activity (TAO3(h)): 67%; % activity (ALK4(h)): 130%; % activity (JNK2α2(h)): 96%; % activity (CDK7/cyclinH/MAT1(h)): 47%

FAKLAARLYRKALARQLGVAA [MMI-0300] was tested. Which “% activity” value (SGK3(h)) did it give?
The value was 10%.

And the “% activity” value (MST3(h))?
The value was 45%.

What about the “% activity” value (Met(h)) of the same sequence?
The value was 65%.

And the “% activity” value (Plk3(h))?
The value was 127%.

What about the “% activity” value (MSK2(h)) of the same sequence?
Its value is 56%.

And the “% activity” value (Met(D1246N)(h))?
The value was 82%.

And the “% activity” value (MST2(h))?
Its value is 19%.

And the “% activity” value (TAO3(h))?
The value was 77%.

What about the “% activity” value (ALK4(h)) of the same sequence?
The value was 140%.

And the “% activity” value (JNK2α2(h))?
The value was 98%.

What about the “% activity” value (CDK7/cyclinH/MAT1(h)) of the same sequence?
The value was 65%.
